# Measurements published in the DeepSol protein solubility set.
# Assay: soluble on expression in E. coli; label from the status in PepcDB or PDB records
row,Sequence,soluble on expression in E. coli
1,SLQLRPSFLLSSLRPSLTGARRLVETIFLGSRPWMPGTPRRLPRLPQRYWQMRPLFLELLGNHAQCPYGVLLKTHCPLRAAVTPAAGVCAREKPQGSVAAPEEEDTDPRRLVQLLRQHSSPWQVYGFVRACLRRLVPPGLWGSRHNERRFLRNTKKFISLGKHAKLSLQELTWKMSVRDCAWLRRSPGVGCVPAAEHRLREEILAKFLHWLMSVYVVELLRSFFYVTETTFQKNRLFFYRKSVWSKLQSIGIRQHLKRVQLREEG,not soluble
2,SLQMQGITGSNITVLELVERYLSLKTGVKHNTLANYKFVVNVLKKEEFAYKKVDDVKLSDAKIFLIKLQRDGRGYSSIHSIRGVLRPAFQMAVDDDLILKNPFGFELGTVLVNDSQKRQAVSPEDETKFLDFVKNDPHYNQYYDAFYILFKTGLRISEFCGLTVKDLDFKEDIINVNHQLQRTREMKYIIVSTKTTSGTRLLPMEADVKEAFLRILKNRRKPKREPMVDGYGGFLFLDKNGRPMVALHWEKYMQHAREKYNRENLLQLPPVTPHICRHTYCTNMANSGMNPKTLQYLMGHSDVSVTLNIYTHTGYDDAKKELARLKEARDELEKKKFITQKHAQTTHVSLIS,not soluble
3,SLRFVDEYRAPEQVMQLIEHLRERASHLSYTAERPLRIMEVCGGHTHAIFKFGLDQLLPENVEFIHGPGCPVCVLPMGRIDTCVEIASHPEVIFCTFGDAMRVPGKQGSLLQAKARGADVRIVYSPMDALKLAQENPTRKVVFFGLGFETTMPTTAITLQQAKARDVQNFYFFCQHITLIPTLRSLLEQPDNGIDAFLAPGHVSMVIGTDAYNFIASDFHRPLVVAGFEPLDLLQGVVMLVQQKIAAHSKVENQYRRVVPDAGNLLAQQAIADVFCVNGDSEWRGLGVIESSGVHLTPDYQRFDAEAHFRPAPQQVCDDPRARCGEVLTGKCKPHQCPLFGNTCNPQTAFGALMVSSEGACAAWYQYRQQESEA,soluble
4,SLRRWDQGLEKPRLDYSEFFTEDVGQLPGLTIWQIENFVPVLVEEAFHGKFYEADCYIVLKTFLDDSGSLNWEIYYWIGGEATLDKKACSAIHAVNLRNYLGAECRTVREEMGDESEEFLQVFDNDISYIEGGTASGFYTVEDTHYVTRMYRVYGKKNIKLEPVPLKGSSLDPRFVFLLDQGLDIYVWRGAQATLSNTTKARLFAEKINKNERKGKAEITLLVQGQEPPGFWDVLGGEPSEIKNHVPDDFWPPQPKLYKVGLGLGYLELPQINYKLSVEHKKRPKVELMPGMRLLQSLLDTRCVYILDCWSDVFIWLGRKSPRLVRAAALKLGQELCGMLHRPRHTVVSRSLEGTEAQVFKAKFKNWDDVLTVDYTRNAEAVLQGQGLSGKVKRDTEKTDQMKADLTALFLPRQPPMPLAEAEQLMEEWNEDLDGMEGFVLEGRKFTRLPEEEFGHFYTQDCYVFLCRYWVPVEYEEEEKTEDKEGKASAEAREGEEAAAEAEEKQPEEDFQCIVYFWQGREASNMGWLTFTFSLQKKFESLFPGKLEVVRMTQQQENPKFLSHFKRKFIIHRGKRKVTQGTLQPTLYQIRTNGSALCTRCIQINTDSSLLNSEFCFILKVPFESEDNQGIVYAWVGRASDPDEAKLAEDILNTMFDASYSKQVINEGEEPENFFWVGIGAQKPYDDDAEYMKHTRLFRCSNEKGYFAVTEKCSDFCQDDLADDDIMLLDNGQEVYMWVGTQTSQVEIKLSLKACQVYIQHTRSKEHERPRRLRLVRKGNEQRAFTRCFHAWSTFRQAPA,not soluble
